The test concerns the target Myc-GRAF3 (human) (UniProt A6NI28).
UniProt A6NI28, sequence (A6NI28 whole entry): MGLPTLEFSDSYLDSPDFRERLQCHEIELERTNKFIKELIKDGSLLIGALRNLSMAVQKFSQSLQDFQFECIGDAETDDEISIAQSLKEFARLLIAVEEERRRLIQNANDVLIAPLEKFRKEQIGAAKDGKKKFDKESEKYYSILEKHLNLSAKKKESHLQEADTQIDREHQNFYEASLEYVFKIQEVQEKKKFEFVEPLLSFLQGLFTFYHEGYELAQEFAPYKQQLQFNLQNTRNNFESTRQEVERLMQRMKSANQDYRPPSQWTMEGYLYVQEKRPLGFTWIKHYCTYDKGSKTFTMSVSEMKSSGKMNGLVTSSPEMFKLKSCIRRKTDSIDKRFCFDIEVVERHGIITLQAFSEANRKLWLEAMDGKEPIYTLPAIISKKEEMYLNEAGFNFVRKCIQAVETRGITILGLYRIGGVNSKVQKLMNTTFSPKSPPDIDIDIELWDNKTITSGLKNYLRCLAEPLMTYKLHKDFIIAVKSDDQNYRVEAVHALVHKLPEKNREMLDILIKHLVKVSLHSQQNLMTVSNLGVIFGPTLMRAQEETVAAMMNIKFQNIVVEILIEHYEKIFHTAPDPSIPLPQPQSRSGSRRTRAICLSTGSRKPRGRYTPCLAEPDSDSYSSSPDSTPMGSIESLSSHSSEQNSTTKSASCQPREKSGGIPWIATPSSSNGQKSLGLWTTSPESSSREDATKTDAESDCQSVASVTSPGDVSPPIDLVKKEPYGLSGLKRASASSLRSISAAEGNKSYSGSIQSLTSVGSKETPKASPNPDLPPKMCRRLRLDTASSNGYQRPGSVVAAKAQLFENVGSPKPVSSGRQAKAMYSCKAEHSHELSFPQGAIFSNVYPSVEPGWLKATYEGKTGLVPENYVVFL

Regarding Flag-GRAF3 Bar-PH (domain or fragment), the RhoA-dependent actin stress fibers (phalloidin staining) in RaAoSMC; cells with reduced stress fibers: 58/59 with Myc-GRAF3 alone, 5/72 with Myc-GRAF3 and Flag-BAR-PH is 5 of 72 cells.
